This is an account of results in patent US20250051443A1 (NATIONAL RESEARCH COUNCIL OF CANADA, published 2025).

For experiment [1], the target named is T1, Cynomolgus CD3 (Cynomolgus, UniProt Q95LI5 22-198; Q95LI7 23-181; Q95LI8 22-171).
T1 construct: whole, on cells; also called CD3 on Cynomolgus PBMCs; CD3 on HSC-F Cynomolgus T cell line
Briefly: apparent KD (KDapp), flow cytometry titration on fresh cynomolgus PBMCs. Here is the method: To characterize potential cross-reactivity of the anti-human CD3 mAbs to NHP T cells, dose response flow cytometry titration studies were performed on both freshly obtained Cynomolgus PBMCs (Comparative Medicine and Animal Resources Centre—McGill University) or the Cynomolgus derived T cell line, HSC-F (Non-Human Primate Reagent Resource—NIH). Binding studies on fresh Cynomolgus PBMCs was performed on a subset of anti-CD3 mAbs (FIG. 4) whereas the Herpesvirus saimiri immortalized Cynomolgus T cell line HSC-F was employed for further evaluations (FIGS. 5A to 5C). KDapp values were calculated using a non-linear regression model of one-site binding with Hill slope (GraphPad Prism) and tabulated (Table 3b). Similar KDapp values for anti-CD3 mAb 1E2 obtained from binding to fresh Cynomolgus PBMCs (KDapp=0.28 nM) or the HSC-F T cell line (KDapp=0.39 nM) indicated the HSC-F cell line was a suitable surrogate for ex vivo NHP T cells.
Cynomolgus PBMCs were obtained from fresh ex vivo peripheral blood via density centrifugation and cultured overnight at 37° C./5% CO₂ in the presence of human recombinant IL2 (20 IU/mL; Novartis). Starting from 100 nM, graded doses of the anti-CD3 mAbs were incubated with 100K NHP PBMCs for 0.5 hours at 4° C. in flow staining buffer (SB; PBS/1% BSA/0.01% NaN3) in 96 w V-bottom plates. Following plate washing with SB (150 μL), cell pellets were resuspended in a 5 µg/mL solution of goat (Fab′)₂ anti-mouse IgG (H+L)− APC secondary antibody in SB, incubated at 4° C. (30 min.), washed 1× with SB, and resuspended for flow analysis. The commercial NHP cross-reactive SP34.2 anti-CD3 mAb (BD Biosciences), anti-human OKT-3 IgG2a (Biolegend—data not shown) and non-specific mIgG were employed as controls. 20K live events were acquired on a BD LSRFortessa flow analyzer and mean fluorescence intensities (MFI) calculated after subtraction of secondary antibody alone values. Using GraphPad Prism software, the data were analyzed using a one site specific binding with Hill slope non-linear regression model to calculate KDapp and BMax values (See Table 2).

The target in experiment [2] is T1, Cynomolgus CD3. Briefly: apparent KD (KDapp), flow cytometry titration on cynomolgus HSC-F T cell line. The gist of the method: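 HSC-F cells (Herpesvirus saimiri-immortalized, cultured with 40 IU/mL human IL2), 100K/well, incubated with graded anti-CD3 mAb doses from 100 nM, 2 h, 4 °C; detected with APC anti-mouse IgG (5 μg/mL, 30 min, 4 °C). Background-subtracted MFI fitted by one-site binding with Hill slope for KDapp.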

Experiment [3] has as its target T1, Cynomolgus CD3. Briefly: apparent KD (KDapp), flow cytometry titration on fresh cynomolgus PBMCs; second value in brackets, not explained.

T1 sequence (Q95LI5 22-198, chain 1 of 3): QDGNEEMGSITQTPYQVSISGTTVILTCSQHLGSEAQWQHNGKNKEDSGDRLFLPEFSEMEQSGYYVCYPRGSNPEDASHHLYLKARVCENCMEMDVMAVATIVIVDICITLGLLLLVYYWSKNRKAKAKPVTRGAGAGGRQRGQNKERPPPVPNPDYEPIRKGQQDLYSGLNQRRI
T1 sequence (Q95LI7 23-181, chain 2 of 3): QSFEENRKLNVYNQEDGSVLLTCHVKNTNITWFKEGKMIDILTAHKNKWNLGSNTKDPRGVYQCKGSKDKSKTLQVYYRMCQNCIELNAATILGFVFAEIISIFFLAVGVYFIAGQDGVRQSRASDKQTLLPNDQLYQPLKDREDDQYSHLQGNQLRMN
T1 sequence (Q95LI8 22-171, chain 3 of 3): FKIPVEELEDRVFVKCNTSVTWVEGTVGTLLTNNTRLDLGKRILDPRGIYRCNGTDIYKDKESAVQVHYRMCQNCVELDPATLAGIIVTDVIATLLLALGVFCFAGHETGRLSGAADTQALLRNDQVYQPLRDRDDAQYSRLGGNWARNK

B1: F282-2D5 (antibody, V domains shown)
VH: QVQLQQPGTELVKPGASVKLSCKASGYTFTSYWMHWVKQRPGQGLEWIGNINPSNGGTNYNENFKTKATLTVDKSSSTAYMQLSSLTSEDSAVYYCARDRSGQYYFDYWGQGTTLTVSS
VL: DIVMSQSPSSLAVSAGEKVTMSCKSSQSLLNSRTRKNYLAWYQQKPGQSPKLLIYWASTRESGVPDRFTGSGSGTDFTLTISSVQAEDLAVYYCIQSYHLRTFGGGTILEIK
notes: also called F282-2D5-2
B1: the Kd with Cynomolgus CD3 [1] was found to be 0.11 nM.

B2: F332-7C5 (antibody, mouse IgG2a, V domains shown)
VH: QVQLQQPGAELGKPGTSVKLSCKASGYTFTSYWMHWVKQRPGQGLEWIGNINPSSGITNYNERFKNKATLTVDKSSTTAYMQLSILTSEDSAVYYCSRDISGQYYFNFWGQGTTLTVSS
VL: DIVMSQSPSSLAVSAGEKVTMSCKSSQSLLNSRTRKNYLAWYQQKPGQSPKLLIYWASTRESGVPDRFTGTGSGTDFTLTISSVQAEDLAVYYCKQSYNLRTFGGGTKLEIK
notes: also called F332-7C5-2; F332-7C5 (5E12, 10A8)
Turning to B2, in the experiment with Cynomolgus CD3 [2], the Kd came to 0.37 nM.

B3: F332-7C9 (antibody, mouse IgG2a, V domains shown)
VH: QVQLQQSGPELVKPGASVRISCKASGYTFTSHYLHWVKQRPGQGFEWIGWIYPGDGNTRYNEKFKDRATLTADKSSSTAYLHLSSLTSEDSAVYFCARDAGYYFDYWGQGTTLAVSS
VL: DIVMSQSPSSLAVSAGEKVTMSCKSSQSLLNSRTRKNYLAWYQQKPGQSLKVLIYWASTRESGVPDRFTGSGSGTDFTLTISSVQAEDLAVYYCKQSYSLRTFGGGTKLEIK
notes: also called F332-7C9-2; F332-7C9 (5C7, 7D10)
Take B3: the Kd with Cynomolgus CD3 [2] turned out to be 0.36 nM.

B4: F332-4D6 (antibody, mouse IgG2a, V domains shown)
VH: QVQLQQSGAELGKPGTSVKLSCKASGYTFTSYWIHWVKQRPGQGLEWIGNINPNSGSTNYNEKFKRKATLTADKSSSTAYMQLSTLTSEDFAVYYCTRDTSGQYYFDYWGQGTTLTVSS
VL: DIVMSQSPSSLAVSAGEKVTMSCKSSQSLLNSRTRKNYLAWYQQKPGQSPKVLIYWASTRESGVPDRFTGSGSGTDFTLTISSVQAEDLAVYYCKQSYHLRTFGGGTKLEIK
notes: also called F332-4D6-2; F322-4D6
As to B4, in the experiment with Cynomolgus CD3 [1], the Kd was determined as 0.15 nM.

B5: F332-1C9 (antibody, mouse IgG2a, V domains shown)
VH: QVQLQQPGAELGKPGTSVNLSCKASGYTFTSYWMHWVKQRPGQGLDWIGNINPNSGTTNYNEKFKSKATLTVDKSSSTAYMQLSTLTSEDSAVYYCTRDISGQYYFDYWGQGTSLTVSS
VL: DIVMSQSPSSLAVSAGEKVTMSCKSSQSLLNSRTRKNYLAWYQQKPGQSPKLLIYWASTRESGVPDRFTGSGSGTDFTLIISSVQAEDLAVYYCKQSYSLRTFGGGTKLEIK
notes: Sister clones 1A10, 5H8, 8B11 share the same entries; also called F332-1C9-2; F332-1C9 (1A10, 5H8, 8B11)
B5: the results for the Kd with Cynomolgus CD3 [1] and with Cynomolgus CD3 [3] were 0.25 nM and 0.26 nM, respectively.

B6: F332-6D7 (antibody, mouse IgG2a, V domains shown)
VH: QVQLQQPGAELGKPGTSVNLSCKASGYTFTSYWMHWVKQRPGQGLDWIGNINPNSGTTNYNEKFKSKATLTVDKSSSTAYMQLSTLTSEDSAVYYCTRDISGQYYFDYWGQGTSLTVSS
VL: DIVMSQSPSSLAVSAGEKVTMSCKSSQSLLNSRTRKNYLAWYQQKPGQSPKLLIYWASTRESGVPDRFTGSGSGTDFTLTISSVQAEDLAVYYCKQSYSLRTFGGGSKLEIK
notes: also called F332-6D7-2; F332-6D7 (7G4)
Regarding B6, in the experiment with Cynomolgus CD3 [2], the Kd amounted to 0.27 nM.

B7: F332-5F2 (antibody, mouse IgG2b, V domains shown)
VH: QVQLQQPGAELGKPGTSVKLSCKASGYTFTSYWMHWVKQRPGQGLEWIGNINPNGGDSNYNEKFKSKATLTVDKSSSTAYMQLSTLTSEDSAVYYCTRDISGQYYFDFWGQGTSLTVFS
VL: DILMSQSPSSLAVSAGEQVTMSCKSSQSLLNSRTRKNYLAWYQQKPGQSPKLLIFWASTRKSGVPDRFTGSGSGTYFTLTISSVQAEDLAVYYCTQSYNLRTFGGGTKLEIK
notes: also called F332-5F2-2; F332-5F2 (6G8, 13A3)
For the molecule B7, in the experiment with Cynomolgus CD3 [2], the Kd was 0.4 nM.

B8: F332-1E2 (antibody, mouse IgG2a, V domains shown)
VH: QVQLQQPGAELGKPGTSVKLSCKASGYTFTSYWIHWVKQRPGQGLEWVGNINPNSGSINYNEKFKNKATLTVDKSSSTAYMQLSTLTSEDFAVYYCTRDTSGQYYFDYWGQGTTLTVSS
VL: DIVMSQSPSSLAVSAGERVTMSCKSSQSLLNSRTRKNYLAWYQQKPGQSPKLLIYWASTRESGVPDRFTGSGSGTDFTLTISSVQAEDLAVYYCIQSYHLRTFGGGTKLEIK
notes: Sister clone 8C5 shares the same entries; also called F332-1E2-2; F332-1E2 (8C5)
For B8, the Kd was determined as 0.28 nM with Cynomolgus CD3 [1] and 0.39 nM with Cynomolgus CD3 [2].

B9: F332-3E9 (antibody, mouse IgG2a, V domains shown)
VH: QVQLQQPGAELGKPGTSVKLSCKASGYTFTSYWIHWLKQRPGQGLEWIGNINPNGGSINCNEKFTTKATLTIDKSSSTAYMQLSTLTSEDFAVYYCTRDTSGQYYFDYWGQGTTLTVSS
VL: DIMMSQSPSSLAVSAGEKVTMSCKSSQSLLNSRTRKNYLAWYQQKPGQSPKLLIYWASTRESGVPDRFTGSGSGTDFTLTISSVQAEDLAVYYCTQSYHLRTFGGGTKLEIK
notes: also called F332-3E9-2; F332-3E9 (12G4)
Turning to B9, the Kd with Cynomolgus CD3 [1] came out at 0.21 nM.
